The text below walks through data of publication PMC9333989.

Holding throughout (test): co-IP; FFLISA as a1; total Lck signal of all sucrose gradient fractions normalised to CD4 signal, given relative to WT
For test [1], the target named is mouse CD4 Clasp mutant (C444S, C446S) (mouse) (UniProt P06332).
Test [2] concerns the target mouse CD4 H mutant (total ICD helix mutation, aa430–442 to …) (mouse) (UniProt P06332).
The target in test [3] is mouse CD4 HC mutant (total helix + clasp: aa430–442 replaced, C444S, C446S) (mouse) (UniProt P06332).
The target of test [4] is mouse CD4 LL mutant (L437A + L438A) (mouse) (UniProt P06332).
Test [5] addresses mouse CD4 TP mutant (TMD + Palm: G403V, G406L, C418S, C421S) (mouse) (UniProt P06332).

As for “Lck (Src kinase) (from UniProt P06240 1-509) (enzyme)”, the total CD4–Lck abundance, percent of WT in test [1] was 31 % of WT; in test [4] it was 49 % of WT; in test [5], 123 % of WT. Further, the CD4−Lck association, percent of WT in test [2] is 25 % of WT; in test [3], 14 % of WT.
